These are literature values, as cited in article PMC7699679.

Data set [1] has as its target CXCR1 (Homo sapiens) (UniProt P25024).
Data set [2] addresses CCR2 (Homo sapiens) (UniProt P41597).
Data set [3] concerns the target CXCR2 (Homo sapiens) (UniProt P25025).
In data set [4] the target is C5aR (Homo sapiens) (UniProt P21730).
Sequence of UniProt P21730 (P21730 whole entry): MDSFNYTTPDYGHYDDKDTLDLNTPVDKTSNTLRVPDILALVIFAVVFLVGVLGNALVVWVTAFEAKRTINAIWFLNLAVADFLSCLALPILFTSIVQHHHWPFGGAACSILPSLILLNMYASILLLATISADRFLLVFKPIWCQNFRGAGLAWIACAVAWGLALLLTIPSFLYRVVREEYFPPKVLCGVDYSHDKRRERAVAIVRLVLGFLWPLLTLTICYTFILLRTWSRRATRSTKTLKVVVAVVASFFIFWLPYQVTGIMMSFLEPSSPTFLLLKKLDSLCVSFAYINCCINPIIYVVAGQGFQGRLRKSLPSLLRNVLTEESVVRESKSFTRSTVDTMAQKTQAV

Sequence of UniProt P41597 (P41597 whole entry): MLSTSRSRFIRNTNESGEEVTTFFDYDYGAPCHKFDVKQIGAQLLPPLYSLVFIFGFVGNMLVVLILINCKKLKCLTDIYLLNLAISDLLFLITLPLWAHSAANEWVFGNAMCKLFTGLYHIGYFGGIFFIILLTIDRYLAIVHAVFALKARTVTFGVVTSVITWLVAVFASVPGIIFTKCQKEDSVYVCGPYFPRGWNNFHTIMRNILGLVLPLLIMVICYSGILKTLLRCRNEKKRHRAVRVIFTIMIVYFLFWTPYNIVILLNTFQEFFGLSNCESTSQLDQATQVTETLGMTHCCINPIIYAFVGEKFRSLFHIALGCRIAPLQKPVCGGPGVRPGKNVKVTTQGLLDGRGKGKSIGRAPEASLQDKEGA
Sequence of UniProt P25024 (P25024 whole entry): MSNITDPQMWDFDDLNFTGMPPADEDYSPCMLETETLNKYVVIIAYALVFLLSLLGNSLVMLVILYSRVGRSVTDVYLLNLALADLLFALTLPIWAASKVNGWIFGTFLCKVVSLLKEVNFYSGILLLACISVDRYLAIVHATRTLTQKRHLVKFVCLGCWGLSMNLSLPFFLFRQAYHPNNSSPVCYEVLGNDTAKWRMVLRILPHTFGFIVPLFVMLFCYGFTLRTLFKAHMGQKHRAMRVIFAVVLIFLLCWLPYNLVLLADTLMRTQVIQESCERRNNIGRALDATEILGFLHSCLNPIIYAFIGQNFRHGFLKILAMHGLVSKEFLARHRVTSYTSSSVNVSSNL
Sequence of UniProt P25025 (P25025 whole entry): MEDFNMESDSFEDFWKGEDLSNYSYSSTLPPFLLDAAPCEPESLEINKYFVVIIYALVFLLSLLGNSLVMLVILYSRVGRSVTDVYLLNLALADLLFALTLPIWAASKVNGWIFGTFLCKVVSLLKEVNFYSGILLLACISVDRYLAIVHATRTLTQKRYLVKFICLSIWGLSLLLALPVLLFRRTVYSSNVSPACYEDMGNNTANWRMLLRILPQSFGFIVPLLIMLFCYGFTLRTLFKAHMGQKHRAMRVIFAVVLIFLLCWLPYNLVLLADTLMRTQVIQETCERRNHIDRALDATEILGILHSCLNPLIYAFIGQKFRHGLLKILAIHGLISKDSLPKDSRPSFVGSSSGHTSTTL

One may read the Kd as a measure of binding affinity in units of concentration. Regarding HlgA (from UniProt Q5HDD6), the dissociation constant Kd in data set [1] was 5.69 nM; in data set [2], 3.51 nM; in data set [3] it was 27.2 nM.
In the case of HlgC (from UniProt Q07227), the Kd in data set [4] was 5.64 nM.
